{"source": "paper PMC2755957", "about": "(The Journal of Biological Chemistry, 2009)", "molecules": {"B1": {"name": "Δ^1–24-L-PGDS + P110A (Mus musculus; P110A) (protein)", "chain": "MAALRMLWMGLVLLGLLGFPQTPAQGHDTVQPNFQQDKFLGRWYSAGLASNSSWFREKKAVLYMCKTVVAPSTEGGLNLTSTFLRKNQCETKIMVLQPAGAPGHYTYSSAHSGSIHSVSVVEANYDEYALLFSRGTKGPGQDFRMATLYSRTQTLKDELKEKFTTFSKAQGLTEEDIVFLPQPDKCIQE"}, "B2": {"name": "Δ^1–24-L-PGDS + T67A/S81A (Mus musculus; S81A/T67A) (protein)", "chain": "B1 chain with T67A, S81A, A110P"}, "B3": {"name": "Δ^1–24-L-PGDS + S45A/T67A (Mus musculus; S45A/T67A) (protein)", "chain": "B1 chain with S45A, T67A, A110P"}, "B4": {"name": "Δ^1–24-L-PGDS + S45A/S81A (Mus musculus; S45A/S81A) (protein)", "chain": "B1 chain with S45A, S81A, A110P"}, "B5": {"name": "mouse Δ1–24-L-PGDS (lipocalin type prostaglandin D synthase) (Mus musculus; W54A) (protein)", "chain": "QGHDTVQPNFQQDKFLGRWYSAGLASNSSAFREKKAVLYMCKTVVAPSTEGGLNLTSTFLRKNQCETKIMVLQPAGAPGHYTYSSPHSGSIHSVSVVEANYDEYALLFSRGTKGPGQDFRMATLYSRTQTLKDELKEKFTTFSKAQGLTEEDIVFLPQPDKCIQE"}, "B6": {"name": "mouse Δ1–24-L-PGDS (lipocalin type prostaglandin D synthase) (Mus musculus; H111A) (protein)", "chain": "B5 chain with A30W, H87A"}, "B7": {"name": "mouse Δ1–24-L-PGDS (lipocalin type prostaglandin D synthase) (Mus musculus; S81A) (protein)", "chain": "B5 chain with A30W, S57A"}, "B8": {"name": "mouse Δ1–24-L-PGDS (lipocalin type prostaglandin D synthase) (Mus musculus; S45A/S81A/T67A) (protein)", "chain": "B5 chain with S21A, A30W, T43A, S57A"}, "B9": {"name": "mouse Δ1–24-L-PGDS (lipocalin type prostaglandin D synthase) (Mus musculus; H116A) (protein)", "chain": "B5 chain with A30W, H92A"}, "B10": {"name": "mouse Δ1–24-L-PGDS (lipocalin type prostaglandin D synthase) (Mus musculus; S45A) (protein)", "chain": "B5 chain with S21A, A30W"}, "B11": {"name": "mouse Δ1–24-L-PGDS (lipocalin type prostaglandin D synthase) (Mus musculus; T67A) (protein)", "chain": "B5 chain with A30W, T43A"}}, "note": "Positions count from the first letter of the chain named. Names may count otherwise."}
{"substrate": "[H][C@]12C[C@]([H])(OO1)[C@H](C/C=C\\CCCC(=O)O)[C@H]2/C=C/[C@@H](O)CCCCC", "assay": "purified protein, by the assay type", "settings": "pH 8.0; 25.0 °C", "units": {"Km": "µM", "Vmax": "µmol/min/mg"}}
{"molecule": "B1", "Km": "1.6 ± 0.5", "Vmax": 4.8}
{"molecule": "B2", "Km": "2.1 ± 0.2", "Vmax": 1.3}
{"molecule": "B3", "Km": "2.1 ± 0.6", "Vmax": 1.6}
{"molecule": "B4", "Km": "1.2 ± 0.3", "Vmax": 1.5}
{"molecule": "B5", "Km": "1.3 ± 0.5", "Vmax": 3.6}
{"molecule": "B6", "Km": "1.4 ± 0.4", "Vmax": 5.1}
{"molecule": "B7", "Km": "1.5 ± 0.4", "Vmax": 4.7}
{"molecule": "B8", "Km": "1.2 ± 0.1", "Vmax": 0.5}
{"molecule": "B9", "Km": "1.4 ± 0.1", "Vmax": 4.4}
{"molecule": "B10", "Km": "0.5 ± 0.2", "Vmax": 2.3}
{"molecule": "B11", "Km": "2.8 ± 0.9", "Vmax": 2.8}
{"target": "T1, mouse Δ1–24-L-PGDS (lipocalin type prostaglandin D synthase) (Mus musculus, UniProt O09114, S45A/S81A/T67A)", "T1 sequence (O09114 25-189 S45A/T67A/S81A)": "B5 chain with S21A, A30W, T43A, S57A", "assay": "biochemical", "settings": "not given", "units": {"Kd": "nM"}}
{"molecule": "CC1=C(/C=C/C(C)=C/C=C/C(C)=C/C(=O)O)C(C)(C)CCC1", "note": "[all-trans-retinoic acid]", "Kd": "418 ± 124"}
